Experimental data as given in the nanobody polyreactivity screen of Harvey et al. (2022).

Assay: yeast display, Sf9 membrane polyspecificity reagent, FACS + sequencing; frameworks hold sequencing errors
How it was run: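 Nanobodies came from a synthetic yeast display library in Saccharomyces cerevisiae BJ5465, induced with galactose for 36–48 hours and stained for 1 hour at 4 °C with 10% biotinylated, detergent-solubilized Sf9 membrane reagent. Cells were enriched on streptavidin microbeads and then FACS-sorted, with low and high (top ~1%) gates set on anti-HA fluorescence for expression and streptavidin fluorescence for reagent binding. Each polyreactivity label reflects the gate a clone came from. Genes were amplified by colony PCR, sequenced by MiSeq 2 × 250 and filtered by CDR length.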

Row | Sequence | polyreactivity (PSR sort gate)
1 | QVQLVESGGGLVQAGGSLRLSCAASGSTFKAYAMGWYRQAPGKERELVAAITKSGGRTYYADSVKGRFTISRDNAKNTVYLQMISLKPEDTAVYYCAAVFRPDSSAYRYYYWGQGTQVTVSS | high polyreactivity
2 | QVQLVESGGGLVQAGGSLRLSCAASGSTFKAYAMGWYRQAPGKERELVAAITKSGGRTYYADSVKGRFTISRDNAKNTVYLQMNSLKPEDTAVYYCAAVFRPDSSAYRYYYWGQGTQVTVSS | high polyreactivity
3 | QVQLVESGGGLVQAGGSLRLSCAASGSTFKAYAMGWYRQAPGKERELVAAITNSDGDTYYADSVKGRFTISRDNAKNTVYLQMNSLKAEDTAVYYCNALYFLKKLYDYWGQGTQVTVSS | low polyreactivity
4 | QVQLVESGGGLVQAGGSLRLSCAASGSTFKAYVMGWYRQAPGKERELVAVISRSGGTTYYADSVKGRFTISRDNAKNTVYLQMNSLKPEDTAVYYCAAQWRYQYPESLESYYWGQGTQVTVSS | high polyreactivity
5 | QVQLVESGGGLVQAGGSLRLSCAASGSTFKFYAMGWYRQAPGKERELVAAISRSGGSTYYADSVKGRFTLSRDNAKNTVYLQMNSLKPEDTAGYYCAAERTLKSDYWGQGTQVTVSS | high polyreactivity
6 | QVQLVESGGGLVQAGGSLRLSCAASGSTFKFYGVGWYRQAPGKERQLVASITSSSGPTYYADSVKGRFTISRDNAKYTVYLQLNSLKPEDPAVYDCNKAWRRYWLRGDYWGQGKQVTVSS | low polyreactivity
7 | QVQLVESGGGLVQAGGSLRLSCAASGSTFKIYAMGWYRQAPGKERELVAAITRGGSTNYADSVKGRFTISRDNAKNTVYLQMNSLKPEDTAVYYCAASYWYRRYGTYTYDYWGQGTQVTVSS | high polyreactivity
8 | QVQLVESGGGLVQAGGSLRLSCAASGSTFKIYAMGWYRQAPGKEREVVARITGRGGSTYYADSVKGRFTISRDNAKNTVYLQMNSLKPEDTAVYYCAAAKRYYSEMYWGQGTQVTVSS | high polyreactivity
9 | QVQLVESGGGLVQAGGSLRLSCAASGSTFKRNAMGWYRQAPGKERELVAAISFRGGSTYYADSVKGRFTISRDNAKNTVYLQMNSLKPEDTAVYYCAAGIYRIRGGGISFDYWGQGTQVTVSS | high polyreactivity
10 | QVQLVESGGGLVQAGGSLRLSCAASGSTFKRYAMGWYRQAPGKERELVAAISRRGGSTYYADSVKGRFTISRDNAKNTVYLQMNSLKPEDTAVYYCAARIASHLYYYWGQGTQVTVSS | high polyreactivity
11 | QVQLVESGGGLVQAGGSLRLSCAASGSTFKRYAMGWYRQAPGKERELVASISQRGGTTYYADSVKGRFTISRDNAKNTVDLQMNSLKPEDTAVYYCAKGFGWTRTIYDYWGQGTQVTVSS | high polyreactivity
12 | QVQLVESGGGLVQAGGSLRLSCAASGSTFKRYARGWYRQAPGKEREFVAGISSRGSRTYYADSVKGRFTISRDNAKNTVYLQMNSLKPEDTAVYYCAVSGNHVSPPYGYWGQGTQVTVSS | high polyreactivity
13 | QVQLVESGGGLVQAGGSLRLSCAASGSTFKRYSMGWYRQAPGKERELVASISGRGGGTYYADSVKGRFTISRDNEKNTVYLQMNSLIPEDTAVYYCAAYGRYYGFDYWGLGTQVTVSS | high polyreactivity
14 | QVQLVESGGGLVQAGGSLRLSCAASGSTFKWYAMGWYRQAPGKERELVAAISSRGGSTYYADSVKGRFTISRDNAKNTVYLQMNSLKPEDTAVYYCNALVRPQWSYNDFDYWGQGTQVTVSS | high polyreactivity
15 | QVQLVESGGGLVQAGGSLRLSCAASGSTFKWYAMGWYRQAPGKERELVAGISWTGASTYYADSVKGRFTISRDNAKNTVYLQMNSLKPDDTAVYYCAADRTYFALLWTGRARYDYWGQGTQVTVSS | high polyreactivity
16 | QVQLVESGGGLVQAGGSLRLSCAASGSTFKWYGMGWYRQAPGKERELVATINYSSSTTYYADSVKGRFTISRDNAKNTVYLQMNSLKPEDTAVYYCAKGVYWGTKSTYDYWGQGTQVTVSS | high polyreactivity
17 | QVQLVESGGGLVQAGGSLRLSCAASGSTFKYNTMGWYRQAPGKERELVATISTGGSTYYADSVKGRFTISRDNAKNTVYLQMNSLKPEDTAVYYCAADGARRNTYRYDYWGQGTQVTVSS | low polyreactivity
18 | QVQLVESGGGLVQAGGSLRLSCAASGSTFKYYAMGWYRQAPGKERELVARISSGGNTKYADSVKGRFTISRDNAMNTVYLQMNSLKPEDTAVYYCAAGYPGVGYAYDYWGQGTQVTVSS | high polyreactivity
19 | QVQLVESGGGLVQAGGSLRLSCAASGSTFKYYPMGWYRQAPGKERELVAAITSTGSTNYADSVKGRFTISRDNAKNTVYLQMNSRKPEDTAVYYCAKKYFYSTYYSWGHGTQVTVSS | low polyreactivity
20 | QVQLVESGGGLVQAGGSLRLSCAASGSTFLDYAMGWYRQAPGKDRELVAAISTDDSSTYYADSVKGRFTISRDNAKNTVYLQMNSLKPEDTAVYYCAADDRDWVNFDYWGQGTQVTVSS | low polyreactivity
21 | QVQLVESGGGLVQAGGSLRLSCAASGSTFLEYARGWSRQAPGKERELVATITGGGGTNYADSVKGRFTISRDNAKNTVYLQMNSLKPEETAVYYCAADYGGAYEYGYWGQGTQVTVSS | low polyreactivity
22 | QVQLVESGGGLVQAGGSLRLSCAASGSTFLFYAMGWYRQAPGKERELVAAISSSGTSTYYADSVKGRFTISRDNAKNTVYLQMNSLKPEDTAVYYCAAVDPYERYVYWGQGTQVTVSS | low polyreactivity

Row | Sequence | polyreactivity (PSR sort gate)
23 | QVQLVESGGGLVQAGGSLRLSCAASGSTFLFYDMGWYRHAAGKERELVAAIRWSGGSTYADSVKGRFTISRDNAKNTVYLQMNSLKPVDTAVYYCATTYRPTFRRHYNYWGQGTQVTVSS | low polyreactivity
24 | QVQLVESGGGLVQAGGSLRLSCAASGSTFLGYTMGWSRQAPGKERELVATITRRGGRTSYADSVKGRFTISRDNAKNTVYLQMNSLKPEDTAVYYCATDSKRSSVPWNTYDYWGQGTQVTVSS | high polyreactivity
25 | QVQLVESGGGLVQAGGSLRLSCAASGSTFLLNAMGWSRQAPGKDRELVAAITWTGGSTYYADSVKGRFTISRDNAKNTVYLQMNILKPEDTAVYYCAAETYVTSYDYWGQGTQVTVSS | low polyreactivity
26 | QVQLVESGGGLVQAGGSLRLSCAASGSTFLLNAMGWYRQAPGKERELVAAITSSGGTNYADSVKGRFTISRDNAKNTVYLQMISLKPEDTAVYYCNTRYSPGYQGTEVDYWGQGTQVTVSS | low polyreactivity
27 | QVQLVESGGGLVQAGGSLRLSCAASGSTFLLNAMGWYRQAPGTERELVAAITSSGGTNYADSVKGRFTISRDNAKNTVYLQMNSLKPEDTAVYYCAKDQERVTKGRFYLLEYYWGQGTQVTVSS | low polyreactivity
28 | QVQLVESGGGLVQAGGSLRLSCAASGSTFLLYAMGWSRQAPGKERELVASISGDGSTNYADSVKGRFTISRDNAKNTVYLQMNSLKPEDTAVYYCARDTVHRLRISSVISNYWGQGTQVTVSS | low polyreactivity
29 | QVQLVESGGGLVQAGGSLRLSCAASGSTFLPYAMGWYRQAPGKERELVAAIRWSVGSTYYADSVKGRFTISRDNAKNTVYLQMNSLIPEVTAGYYCYAVVYVVGDFDYWGQGSQVTVSS | high polyreactivity
30 | QVQLVESGGGLVQAGGSLRLSCAASGSTFLQYAMGWYRQPPGKERELVAAIRFSTGTTYYADSVKGRFTISRDNAKNTVYLQMNSLKPEDTAVYYCNAVGTYRPWFHTYGYWGQGTQVTVSS | high polyreactivity
31 | QVQLVESGGGLVQAGGSLRLSCAASGSTFLRNAMGWYRQAPGKERELVATITNGGSTYYADSVKGRFTISRDNAKNTVYLQMNSLKPEDTAVYYCATRSSYWSWLRYGYGYWGQGTQVTVSS | low polyreactivity
32 | QVQLVESGGGLVQAGGSLRLSCAASGSTFLRNAMRWYRQAPGKERELVAAISRSGGSTYYADSVKGRFTSSRDNAKNTVYLQMNSLKPEDTAVYYCAAVVKYRYSAYGGDYCGQGTQVTVSS | high polyreactivity
33 | QVQLVESGGGLVQAGGSLRLSCAASGSTFLRNDMGWYRQAPGKERELVAAITSGGITNYADSVKGRFTISRDNAKNTVSLQMNSLKPEDTAVYYCNKDSDLHHYHTEFDYWGQGTQVTVSS | low polyreactivity
34 | QVQLVESGGGLVQAGGSLRLSCAASGSTFLRNVMGWYRQAPGKERELVAAISSRGGSTHYADSVKGRFTISRDNAKNTDYLQMNSLKPEDTAVYYCNAERTAAQYVRAAYDYWGQGTQVTVSS | low polyreactivity
35 | QVQLVESGGGLVQAGGSLRLSCAASGSTFLSYAMGWYRQAPGKERELVAAITGSGGSTYYADSVKGRFTISRDNAKNTVYLQMNSLKPEDTAVYYCATDLWRWYGWFDYWGQGTQVTVSS | low polyreactivity
36 | QVQLVESGGGLVQAGGSLRLSCAASGSTFLTNTMGWYRQAPGKERELVAIISRSSGTTYYSDSVKGRFTISRDNAKNTVYLQMNSLKPEDTAVYYCAKRYRRAYPYSKNDYWGQGTQVTVSS | high polyreactivity
37 | QVQLVESGGGLVQAGGSLRLSCAASGSTFLVYAMGWYRQAPGKERELVAAIRGGGSTNYADSVKGRFTISRDNAKNTVYLQMNSLKPEDTAVYYCNADIVLSWFGSGFDYWGQGTQVTVSS | low polyreactivity
38 | QVQLVESGGGLVQAGGSLRLSCAASGSTFLYNALGWYRPAPGKEREFVAAISGSGGTTYYADSVKGRFTISRDNAKNTVYLQMNSLKPEDTAVYYCAVSQSWYWYYASDYWGQGTQVTVSS | low polyreactivity
39 | QVQLVESGGGLVQAGGSLRLSCAASGSTFLYNTMGWYRQAPGKERELVATITSRGDRTYYADSVKGRFTISRDIPKNNVYLQMNSLKPEDTAVYYCNAYGGNYPQSYRYYYWGQGTQVTVSS | low polyreactivity
40 | QVQLVESGGGLVQAGGSLRLSCAASGSTFLYYAMGCYRQAPGKDRELVARITTRVGRTYYADSVKGRFTISRDNAKNTVYLQMNSLKPEDTAVYYCNAPYLKSRFRAYYHWGQGTQVTVAS | high polyreactivity
41 | QVQLVESGGGLVQAGGSLRLSCAASGSTFLYYAMGWYRPAPGKEREFVASISGSGGSTNYADSVKGRFTISRDNAKTTVYLQLNSLKPEDTAVYYCAAGYGGWAWNHVSYGGDYWGQGTQVTVSS | low polyreactivity
42 | QVQLVESGGGLVQAGGSLRLSCAASGSTFLYYAMGWYRPAPGKERELVAAISSGDSTYADSVKGRFTISRDNAKNTVYLQMNSLKPEDTAVYYCNTVLYPYWQWDYEFDYWGQGTQVTVSS | low polyreactivity
43 | QVQLVESGGGLVQAGGSLRLSCAASGSTFLYYAMGWYRQAPGKERELVAAITSSGGRTYYADSVKGRFTISRDNAKNTVYLQMNSLKPEDTAVYYCARGWPRREQSEYDYWGQGTQVTVSS | high polyreactivity
